Test results reported in patent US20240043547A1 (NUMAB THERAPEUTICS, published 2024).
Numbering of substitutions follows the chain as printed. Names and notes keep the numbering of the source. Like-named read-outs stand apart in the source and are kept apart here.

B1: PRO1643 (scFv)
scFv: AFQLTQSPSSLSASVGDRVTITCQASQSIDSWLAWYQQKPGKPPKLLIYQASKLASGVPSRFSGSGSGTDYTLTISSLQPEDFATYYCQTYYGGGHIGWGFGTGTKVTVLGGGGGSGGGGSGGGGSGGGGSQSQLVESGGGLVQPGGSLRLSCAASGFSFSANYWICWVRQAPGKGLEWIVCIYIGSRADTYYAPWAKGRFTISKDNSKNTVYLQMNSLRAEDTAVYFCARFSSGIYDLDRFFLWGQGTLVTVSS
notes: scFv (VL-linker-VH), full graft of rabbit clone 50-09-D07; also called 50-09-D07-sc03; 50-09-D07-5c03
B2: PRO1900 (scFv)
scFv: B1 scFv with L142R, V226T, L250Q
notes: scFv (VL-linker-VH); variant of PRO1643 with VH L12R, V103T, L144Q (AHo numbering); also called 50-09-D07-sc04; 50-09-D07-5c04
B3: PRO1901 (scFv)
scFv: B1 scFv with L142S, V226T, L250Q
notes: scFv (VL-linker-VH); variant of PRO1643 with VH L12S, V103T, L144Q (AHo numbering); also called 50-09-D07-sc05
B4: PRO1902 (scFv)
scFv: B1 scFv with Y184S
notes: scFv (VL-linker-VH); variant of PRO1643 with VH Y59S (AHo numbering); also called 50-09-D07-sc06; 50-09-D07-5c06
B5: PRO1903 (scFv)
scFv: B1 scFv with D30E
notes: scFv (VL-linker-VH); variant of PRO1643 with VL D32E (AHo numbering); also called 50-09-D07-sc07; 50-09-D07-5c07
B6: BMS-981164 (antibody, V domains shown)
VH: QVQLVQSGAEVKKPGASVKVSCKASGYTLTRYWMQWVRQAPGQGLEWMGAIYPGDGDTRYSQKFQGRVTLTADKSTSTAYMELSSLRSEDTAVYYCAFPDGYYAAPYGMDYWGQGTLVTVSS
VL: DIQMTQSPSSLSASVGDRVTITCRASGNIHNYLAWYQQKPGKVPKLLIYNAKTLADGVPSRFSGSRSETQYSLTISSLQPEDVATYYCQHFWSTPWTFGQGTKVEIKR

What was measured:
[1] = biological target: T1, human IL-31 (human, UniProt Q6EBC2 24-164, limits assumed); test: cell-based or functional assay
T1 sequence (looked up): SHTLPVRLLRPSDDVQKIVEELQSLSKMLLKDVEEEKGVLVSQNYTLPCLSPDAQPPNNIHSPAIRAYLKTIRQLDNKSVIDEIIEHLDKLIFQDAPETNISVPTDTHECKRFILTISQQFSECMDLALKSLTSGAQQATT

[2] = biological target: T2, cynomolgus IL-31-His (cynomolgus monkey (Macaca fascicularis)); test: SPR (Biacore T200), cynomolgus IL-31-His captured via anti-His antibody, scFv as analyte
T2 construct: extracellular domain; also called cynomolgus monkey IL-31; cyno IL-31
Method: (§1) After each analyte injection cycle the sensor chip was regenerated and new antigen was captured. The scFvs were measured using a dose response multi-cycle kinetic assay in a high-throughput mode with two concentrations (30 and 10 nM) diluted in running buffer. Obtained sensorgrams were fitted using a 1:1 binding model.

[3] = biological target: T2, cynomolgus IL-31-His; test: as above; remark: listed apart in the source
Method: as §1
(§2) The scFvs were measured using a dose response multi-cycle kinetic assay in a high-throughput mode with two concentrations (30 and 10 nM) diluted in running buffer. Obtained sensorgrams were fitted using a 1:1 binding model.

[4] = biological target: T1, human IL-31; test: competitive ELISA: IL-31RA coated, biotinylated IL-31 preincubated with scFv
Source text: For this purpose, IL-31RA was coated on the ELISA plate.
Potency of the two humanized scFvs was further determined using a competitive ELISA.

[5] = biological target: T3, human IL-31-His (human, UniProt Q6EBC2 24-164); test: SPR (Biacore T200), human IL-31-His captured via anti-His antibody, scFv as analyte
T3 construct: form captured via anti-His tag antibody in the SPR of the scFvs (sections 1.8 and 2.4); also called hIL-31; not shown: His tag
T3 sequence (looked up): T1 sequence (looked up)
Method: as §1

[6] = biological target: T1, human IL-31; test: cell-based or functional assay; remark: listed apart in the source
[7] = biological target: T3, human IL-31-His; test: SPR (Biacore T200), human IL-31-His captured via anti-His antibody, scFv as analyte; remark: listed apart in the source
Method: as §1, §2

[8] = biological target: T1, human IL-31; test: cell-based or functional assay; remark: listed apart in the source
[9] = biological target: T1, human IL-31; test: cell-based or functional assay; remark: listed apart in the source
[10] = biological target: T1, human IL-31; test: competitive ELISA: IL-31RA coated, biotinylated IL-31 preincubated with the antibody, bound IL-31 detected with streptavidin-HRP; blocked interaction IL-31/IL-31RA
[11] = biological target: T1, human IL-31; test: cell-based or functional assay; remark: listed apart in the source
[12] = biological target: T1, human IL-31; test: competitive ELISA: IL-31RA coated, biotinylated IL-31 preincubated with the antibody, bound IL-31 detected with streptavidin-HRP; blocked interaction IL-31/IL-31RA; remark: listed apart in the source
[13] = biological target: T1, human IL-31; test: as above; remark: listed apart in the source
[14] = biological target: T1, human IL-31; test: cell-based or functional assay; remark: listed apart in the source
[15] = biological target: T1, human IL-31; test: cell-based or functional assay; remark: listed apart in the source
[16] = biological target: T1, human IL-31; test: cell-based or functional assay; remark: listed apart in the source

Binder | IC50 [ng/ml], neutralization of hIL-31-induced signaling in IL-31RA/OSMR dimerization assay [1] [ng/mL] | Kd [3] [nM] | koff [3] [s⁻¹] | kon [3] [M⁻¹ s⁻¹] | Kd [7] [nM] | koff [7] [s⁻¹] | kon [7] [M⁻¹ s⁻¹] | further results
B1 | 8.08 | 1.17 | 0.000587 | 501000 | 1.13 | 0.000653 | 579000 | Kd [2]: 0.583 nM; koff [2]: 0.000444 s⁻¹; kon [2]: 761000 M⁻¹ s⁻¹; IC50 [4]: 4.58 ng/mL; Kd [5]: 0.505 nM; koff [5]: 0.000447 s⁻¹; kon [5]: 884000 M⁻¹ s⁻¹; IC50 [ng/ml], neutralization of hIL-31-induced signaling in IL-31RA/OSMR dimerization assay [6]: 11.1 ng/mL
B2 | 8.21 | 1.07 | 0.000594 | 554000 | 0.907 | 0.000599 | 661000 | 
B3 |  |  |  |  | 0.956 | 0.000565 | 591000 | 
B4 |  |  |  |  | 2.89 | 0.00246 | 852000 | 
B5 |  |  |  |  | 1.22 | 0.000638 | 524000 | 
B6 |  |  |  |  |  |  |  | IC50 (read off the curve) [8]: ~10 ng/mL; IC50 (read off the curve) [9]: ~10 ng/mL; IC50 (read off the curve) [10]: ~10 ng/mL; IC50 (read off the curve) [11]: ~10 ng/mL; IC50 (read off the curve) [12]: ~10 ng/mL; IC50 (read off the curve) [13]: ~10 ng/mL; IC50 (read off the curve) [14]: ~10 ng/mL; IC50 (read off the curve) [15]: ~8 ng/mL; IC50 (read off the curve) [16]: ~7 ng/mL
